Experimental data as given in patent US20240409906, “INTEGRASES, LANDING PAD ARCHITECTURES, AND ENGINEERED CELLS COMPRISING THE SAME” (Asimov Inc., published 2024).

What was measured:
Assay in all cases: cell_activity; attB x attP EGFP inversion reporter, HEK293FT
Int22 = target: T1, Int22 (Geobacillus thermoglucosidasius C56-YS93); details: tags: C-terminal GS linker-SV40 NLS
T1 chain: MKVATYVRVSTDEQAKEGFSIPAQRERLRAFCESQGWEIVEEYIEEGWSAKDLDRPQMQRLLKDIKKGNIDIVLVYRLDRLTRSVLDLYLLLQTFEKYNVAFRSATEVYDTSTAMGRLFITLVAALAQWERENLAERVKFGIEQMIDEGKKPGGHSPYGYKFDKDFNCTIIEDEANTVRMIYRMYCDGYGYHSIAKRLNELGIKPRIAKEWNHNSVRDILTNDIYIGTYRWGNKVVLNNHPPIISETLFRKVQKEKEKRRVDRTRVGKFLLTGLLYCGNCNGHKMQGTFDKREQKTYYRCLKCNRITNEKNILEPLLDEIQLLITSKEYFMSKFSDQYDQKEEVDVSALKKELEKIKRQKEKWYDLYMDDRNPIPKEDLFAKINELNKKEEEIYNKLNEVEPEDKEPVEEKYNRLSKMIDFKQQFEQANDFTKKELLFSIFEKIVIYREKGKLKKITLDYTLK

Int29 = target: T2, Int29 (Bacillus weihenstephanensis KBAB4); details: tags: C-terminal GS linker-SV40 NLS; chain copies: 4
T2 chain: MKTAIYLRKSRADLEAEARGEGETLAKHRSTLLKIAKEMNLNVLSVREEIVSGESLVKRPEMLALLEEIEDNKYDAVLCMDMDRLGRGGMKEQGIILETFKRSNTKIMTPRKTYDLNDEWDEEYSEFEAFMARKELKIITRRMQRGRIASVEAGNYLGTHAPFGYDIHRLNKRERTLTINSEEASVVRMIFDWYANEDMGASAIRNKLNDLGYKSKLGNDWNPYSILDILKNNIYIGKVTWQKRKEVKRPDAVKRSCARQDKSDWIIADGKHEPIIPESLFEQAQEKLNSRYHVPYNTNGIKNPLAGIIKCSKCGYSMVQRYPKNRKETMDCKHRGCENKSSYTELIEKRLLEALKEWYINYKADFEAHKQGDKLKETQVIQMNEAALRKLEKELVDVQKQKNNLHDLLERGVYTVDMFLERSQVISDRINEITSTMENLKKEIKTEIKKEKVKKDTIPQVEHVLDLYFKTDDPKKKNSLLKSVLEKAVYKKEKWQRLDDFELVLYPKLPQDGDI

Int23 = target: T3, Int23 (Clostridium difficile 630); details: tags: C-terminal GS linker-SV40 NLS
T3 chain: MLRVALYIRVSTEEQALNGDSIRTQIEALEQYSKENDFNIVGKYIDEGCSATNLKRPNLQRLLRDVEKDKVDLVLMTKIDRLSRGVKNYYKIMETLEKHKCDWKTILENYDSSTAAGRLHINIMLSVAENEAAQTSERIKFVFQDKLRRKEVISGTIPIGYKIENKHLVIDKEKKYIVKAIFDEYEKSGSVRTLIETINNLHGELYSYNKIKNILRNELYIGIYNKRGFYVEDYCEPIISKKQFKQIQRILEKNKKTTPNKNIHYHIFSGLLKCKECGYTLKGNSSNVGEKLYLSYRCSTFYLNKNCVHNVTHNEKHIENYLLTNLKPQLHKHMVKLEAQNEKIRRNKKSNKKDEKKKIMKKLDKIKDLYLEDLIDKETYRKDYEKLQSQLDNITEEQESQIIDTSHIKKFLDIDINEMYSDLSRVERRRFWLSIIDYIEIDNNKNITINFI

Int4 = target: T4, Int4 (Streptococcus equi subsp. equi 4047); details: tags: C-terminal GS linker-SV40 NLS
T4 chain: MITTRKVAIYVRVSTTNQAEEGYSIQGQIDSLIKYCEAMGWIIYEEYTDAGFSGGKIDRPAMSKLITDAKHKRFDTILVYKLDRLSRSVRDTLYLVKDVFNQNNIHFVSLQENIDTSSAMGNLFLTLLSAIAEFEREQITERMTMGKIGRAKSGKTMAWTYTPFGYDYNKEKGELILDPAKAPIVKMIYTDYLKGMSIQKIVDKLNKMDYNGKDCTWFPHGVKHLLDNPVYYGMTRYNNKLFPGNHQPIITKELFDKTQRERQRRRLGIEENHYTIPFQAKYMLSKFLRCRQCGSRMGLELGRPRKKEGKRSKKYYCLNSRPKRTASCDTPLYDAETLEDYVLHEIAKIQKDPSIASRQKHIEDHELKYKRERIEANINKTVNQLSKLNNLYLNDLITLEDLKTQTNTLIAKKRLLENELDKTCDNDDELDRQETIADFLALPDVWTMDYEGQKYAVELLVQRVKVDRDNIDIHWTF

Int26 = Int26 (Clostridium botulinum F str. Langeland); details: tags: C-terminal GS linker-SV40 NLS
Int21 = target: T5, Int21 (Streptococcus mitis B6); details: tags: C-terminal GS linker-SV40 NLS
T5 chain: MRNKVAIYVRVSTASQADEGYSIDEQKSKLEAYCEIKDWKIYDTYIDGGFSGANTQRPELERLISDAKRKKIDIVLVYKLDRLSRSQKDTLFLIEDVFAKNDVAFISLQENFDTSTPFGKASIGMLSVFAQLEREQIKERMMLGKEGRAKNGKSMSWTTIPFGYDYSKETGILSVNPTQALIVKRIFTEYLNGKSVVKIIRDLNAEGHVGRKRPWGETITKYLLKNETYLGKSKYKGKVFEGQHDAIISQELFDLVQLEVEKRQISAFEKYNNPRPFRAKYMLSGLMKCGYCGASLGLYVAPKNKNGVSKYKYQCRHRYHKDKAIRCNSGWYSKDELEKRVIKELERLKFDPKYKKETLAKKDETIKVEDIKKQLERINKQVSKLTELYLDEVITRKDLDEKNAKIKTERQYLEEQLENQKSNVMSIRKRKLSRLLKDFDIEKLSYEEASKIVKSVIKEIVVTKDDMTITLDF

Int30 = target: T6, Int30 (Bacillus cereus AH187); details: tags: C-terminal GS linker-SV40 NLS; chain copies: 4
T6 chain: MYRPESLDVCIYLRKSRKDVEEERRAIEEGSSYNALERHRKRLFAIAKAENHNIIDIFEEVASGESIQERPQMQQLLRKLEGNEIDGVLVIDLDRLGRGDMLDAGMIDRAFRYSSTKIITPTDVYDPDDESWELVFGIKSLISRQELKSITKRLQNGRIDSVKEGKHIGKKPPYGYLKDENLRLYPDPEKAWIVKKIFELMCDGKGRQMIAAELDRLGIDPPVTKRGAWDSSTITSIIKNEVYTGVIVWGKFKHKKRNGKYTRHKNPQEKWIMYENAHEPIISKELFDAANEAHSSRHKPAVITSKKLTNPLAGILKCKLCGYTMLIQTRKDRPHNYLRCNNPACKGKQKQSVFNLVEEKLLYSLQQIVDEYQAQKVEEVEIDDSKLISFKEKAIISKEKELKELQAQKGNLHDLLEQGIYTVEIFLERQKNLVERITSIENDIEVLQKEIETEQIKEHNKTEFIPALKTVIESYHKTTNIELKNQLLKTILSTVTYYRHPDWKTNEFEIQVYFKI

B1: Int22 attP (dsDNA)
DNA 1: TTATAAACCTGTTTTAAAGTTAACTTTACATGCCTAACATTAACTCTTATACAGGTTAAGGT
DNA 2: ACCTTAACCTGTATAAGAGTTAATGTTAGGCATGTAAAGTTAACTTTAAAACAGGTTTATAA
Q: With B1 as the binder, how does the binding signal (Int22) read?
A: 0.945 fraction of Bxb1

B2: Int29 attP (dsDNA)
DNA 1: CGTCACCTTGTTGGCGTAATTAGATTTACTCCAACAGGGTGATGACAAAGCTAATGAATTTT
DNA 2: AAAATTCATTAGCTTTGTCATCACCCTGTTGGAGTAAATCTAATTACGCCAACAAGGTGACG
Q: Which binding signal (Int29) does the source give for B2 here?
A: 2.92 fraction of Bxb1

B3: Int23 attP (dsDNA)
DNA 1: TATATAATTATTTGGACTAACATATAGTATCCACTTGGCTATTATTAGTTAGTCCAAATAAATA
DNA 2: TATTTATTTGGACTAACTAATAATAGCCAAGTGGATACTATATGTTAGTCCAAATAATTATATA
Q: For B3, which binding signal (Int23) is on record?
A: 0.201 fraction of Bxb1

B4: Int4 attP (dsDNA)
DNA 1: CAAAAATTACAAAGTTTTCAACCCTTGATTTGAATTAGCGGTCAAATAATTTGTAATTCGTTT
DNA 2: AAACGAATTACAAATTATTTGACCGCTAATTCAAATCAAGGGTTGAAAACTTTGTAATTTTTG
Q: B4 was tested. Which binding signal (Int4) did it give?
A: 1.85 fraction of Bxb1

B5: Int26 attB (dsDNA)
DNA 1: AGAAATAGACCTTTCAACTGGACAAGGTGCTGATAAAACTATGCAGCAAGTCTTAAGTAAA
DNA 2: TTTACTTAAGACTTGCTGCATAGTTTTATCAGCACCTTGTCCAGTTGAAAGGTCTATTTCT
Q: How did the binding signal (Int26) turn out when B5 was run?
A: 0.204 fraction of Bxb1

B6: Int4 attB (dsDNA)
DNA 1: TTCCAAAGAGCGCCCAACGCGACCTGAAATTTGAATAAGACTGCTGCTTGTGTAAAGGCGATGATT
DNA 2: AATCATCGCCTTTACACAAGCAGCAGTCTTATTCAAATTTCAGGTCGCGTTGGGCGCTCTTTGGAA
Q: With B6 as the binder, how does the binding signal (Int4) read?
A: 1.85 fraction of Bxb1

B7: Int23 attB (dsDNA)
DNA 1: TATTCTAAGTAATGTAGTTTTACCACATCCACTAGGTCCGAGTAAACATAGAAATTCCCCT
DNA 2: AGGGGAATTTCTATGTTTACTCGGACCTAGTGGATGTGGTAAAACTACATTACTTAGAATA
Q: For B7, which binding signal (Int23) is on record?
A: 0.201 fraction of Bxb1

B8: Int21 attB (dsDNA)
DNA 1: TAGGAGGAAAAAATATGTATAATAAAGTTATCATGATTGGGCGTTTGACGTCTACACCAGAAT
DNA 2: ATTCTGGTGTAGACGTCAAACGCCCAATCATGATAACTTTATTATACATATTTTTTCCTCCTA
Q: For B8, which binding signal (Int21) is on record?
A: 0.184 fraction of Bxb1

B9: Int22 attB (dsDNA)
DNA 1: CAAGAAACGTTCCGTCTGTTTGTGTCAGCTGCGCGAAATTAATGACCGGATCGTTTGTTCC
DNA 2: GGAACAAACGATCCGGTCATTAATTTCGCGCAGCTGACACAAACAGACGGAACGTTTCTTG
Q: How did the binding signal (Int22) turn out when B9 was run?
A: 0.945 fraction of Bxb1

B10: Int26 attP (dsDNA)
DNA 1: AAATATAACCTGTGTATTGAAACAAGGTGCTGATAAAACCCTTTCATAAACACAAGTAAATA
DNA 2: TATTTACTTGTGTTTATGAAAGGGTTTTATCAGCACCTTGTTTCAATACACAGGTTATATTT
Q: Which binding signal (Int26) does the source give for B10 here?
A: 0.204 fraction of Bxb1

B11: Int30 attP (dsDNA)
DNA 1: ATAATAGTGTATATGGTAGAGAATTAAACCAGTTTAATACTCCACCATGTACACGCAGTGAG
DNA 2: CTCACTGCGTGTACATGGTGGAGTATTAAACTGGTTTAATTCTCTACCATATACACTATTAT
Q: With B11 as the binder, how does the binding signal (Int30) read?
A: 1.29 fraction of Bxb1

B12: Int30 attB (dsDNA)
DNA 1: GTAATATGTTTGGATATGGGGAAGTGAATCAGTACAACCGCCACAGTACCCTCATGTCAGCC
DNA 2: GGCTGACATGAGGGTACTGTGGCGGTTGTACTGATTCACTTCCCCATATCCAAACATATTAC
Q: Which binding signal (Int30) does the source give for B12 here?
A: 1.29 fraction of Bxb1

B13: Int21 attP (dsDNA)
DNA 1: GTTAATAATATGTATTTAAGTCTAACTTATCATGACAAATTTGACTAAAATACAAAAAGGC
DNA 2: GCCTTTTTGTATTTTAGTCAAATTTGTCATGATAAGTTAGACTTAAATACATATTATTAAC
Q: Which binding signal (Int21) does the source give for B13 here?
A: 0.184 fraction of Bxb1

B14: Int29 attB (dsDNA)
DNA 1: TTTGTAGCCATTAGGCGCATTAGGTTGACGCCATTAAGCCCTAAAGCATCATTCGTCGAAAC
DNA 2: GTTTCGACGAATGATGCTTTAGGGCTTAATGGCGTCAACCTAATGCGCCTAATGGCTACAAA
Q: For B14, which binding signal (Int29) is on record?
A: 2.92 fraction of Bxb1
